Data published in patent US20230017777, “MONOCYTE AND MACROPHAGE BINDING APTAMERS AND THEIR APPLICATION” (University of Washington, published 2023).

T1: CD14 (UniProt P08571 P08571:20-345)
T1 sequence: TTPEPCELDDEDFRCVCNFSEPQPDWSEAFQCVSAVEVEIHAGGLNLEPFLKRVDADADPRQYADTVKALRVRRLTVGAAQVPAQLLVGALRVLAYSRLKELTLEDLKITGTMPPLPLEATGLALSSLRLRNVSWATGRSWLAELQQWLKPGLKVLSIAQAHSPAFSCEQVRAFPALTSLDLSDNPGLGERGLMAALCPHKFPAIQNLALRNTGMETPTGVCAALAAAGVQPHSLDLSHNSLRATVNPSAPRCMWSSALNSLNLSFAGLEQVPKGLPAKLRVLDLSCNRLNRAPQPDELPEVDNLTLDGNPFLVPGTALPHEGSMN

B1: A2 (ssDNA)
DNA: ATCCAGAGTGACGCAGCAGAAGAGTAGATGAAACGTTTTTTCGCCCGATAAAAGGGACGTGCGTCAGACATGGACACGGTGGCTTAGT
B2: SCRM (scrambled / nonspecific control aptamer) (ssDNA)
DNA: ATCCAGAGTGACGCAGCAATGATAGTGACGTACGGACTAGGGATCACCCATATCATGTAGAGGAAGTACGTGGACACGGTGGCTTAGT

Assays:
[1] = biological target: T1, CD14; assay: BLI; no significant binding over SCRM; figure legend calls it SPR, text says BLI (Octet Red96); settings: label: Cy5
[2] = biological target: T1, CD14; assay: BLI; nonspecific aptamer control; settings: label: Cy5 (flow cytometry)

| Binder | binding result [1] | binding result [2] |
| --- | --- | --- |
| B1 | no binding |  |
| B2 |  | no binding |
